Source: article PMC2367712 (Nucleic Acids Research, 2008)

Target: the molecule itself
Experiment: cross-linking

B1: Lsr2 of M. tuberculosis, recombinant, His-tagged at the C-terminal (natural protein)
chain: not shown
**Q.** How did the “stoichiometry N” value turn out when B1 was run?
**A.** 2
